Test results from US11427805B2, “Methods of producing human foregut endoderm cells expressing PDX1 from human definitive endoderm” (ViaCyte, Inc., priority 2005, dated 2022).

Key:
Format in all cases: cell-based, human
hESCs [1] = test: Q-PCR of germ layer marker genes (MIXL1, GATA4, HNF3b, SOX7, SPARC, ZIC1, Brachyury) in differentiating hESCs
From the text: We routinely used Q-PCR to measure the gene expression of multiple markers of target and non-target cell types in order to provide a broad profile description of gene expression in cell samples. The markers relevant for the early phases of hESC differentiation (specifically ectoderm, mesoderm, definitive endoderm and extra-embryonic endoderm) and for which validated primer sets are available are provided below in Table 1. […] This is an important fact since the hESCs were often grown on mouse feeder layers. Most typically, triplicate samples were taken for each condition and independently analyzed in duplicate to assess the biological variability associated with each quantitative determination.
To generate PCR template, total RNA was isolated using RNeasy (Qiagen) and quantitated using RiboGreen (Molecular Probes). Reverse transcription from 350-500 ng of total RNA was carried out using the iScript reverse transcriptase kit (BioRad), which contains a mix of oligo-dT and random primers. Each 20 μL reaction was subsequently diluted up to 100 μL total volume and 3 μL was used in each 10 μL Q-PCR reaction containing 400 nM forward and reverse primers and 5 μL 2×SYBR Green master mix (Qiagen). Two step cycling parameters were used employing a 5 second denature at 85-94° C. (specifically selected according to the melting temp of the amplicon for each primer set) followed by a 45 second anneal/extend at 60° C. Fluorescence data was collected during the last 15 seconds of each extension phase. A three point, 10-fold dilution series was used to generate the standard curve for each run and cycle thresholds (Ct's) were converted to quantitative values based on this standard curve. The quantitated values for each sample were normalized to housekeeping gene performance and then average and standard deviations were calculated for triplicate samples. At the conclusion of PCR cycling, a melt curve analysis was performed to ascertain the specificity of the reaction. A single specific product was indicated by a single peak at the Tm appropriate for that PCR amplicon.
Definitive endoderm cells were predicted to express high levels of SOX17 mRNA and low levels of AFP and SOX7 (visceral endoderm), SPARC (parietal endoderm) and Brachyury (mesoderm). In addition, ZIC1 was used here to further rule out induction of early ectoderm. Finally, GATA4 and HNF3b were expressed in both definitive and extra-embryonic endoderm, and thus, correlate with SOX17 expression in definitive endoderm (Table 1).

CXCR4 gene expression = test: Q-PCR of CXCR4 gene expression in differentiating hESCs
Description: In these experiments, hESCs were differentiated by growing in RPMI medium (Invitrogen, Carlsbad, Calif.; cat #61870-036) supplemented with 0.5%, 2.0% or 10% FBS and either with or without 100 ng/ml activin A for 6 days. In addition, a gradient of FBS ranging from 0.5% to 2.0% over the first three days of differentiation was also used in conjunction with 100 ng/ml of activin A. After the 6 days, replicate samples were collected from each culture condition and analyzed for relative gene expression by real-time quantitative PCR. The remaining cells were fixed for immunofluorescent detection of SOX17 protein.
(§1) hESCs were differentiated in RPMI media supplemented with 0.5%-2% FBS (increased from 0.5% to 1.0% to 2.0% over the first 3 days of differentiation) and either 0, 10, or 100 ng/ml of activin A. After 7 days of differentiation the cells were dissociated in PBS without Ca^2+/Mg^2+ containing 2% FBS and 2 mM (EDTA) for 5 minutes at room temperature. The cells were filtered through 35 μm nylon filters, counted and pelleted. […] Cells were resuspended at 5×10^6 cells/ml in buffer and analyzed and sorted using a FACS Vantage (Beckton Dickenson) by the staff at the flow cytometry core facility (The Scripps Research Institute). Cells were collected directly into RLT lysis buffer (Qiagen) for subsequent isolation of total RNA for gene expression analysis by real-time quantitative PCR.

AFP gene expression = test: Q-PCR of AFP gene expression in differentiating hESCs
Description: In the following experiments, real-time quantitative RT-PCR (Q-PCR) was the primary assay used for screening the effects of various treatments on hESC differentiation. In particular, real-time measurements of gene expression were analyzed for multiple marker genes at multiple time points by Q-PCR. Marker genes characteristic of the desired as well as undesired cell types were evaluated to gain a better understanding of the overall dynamics of the cellular populations. The strength of Q-PCR analysis includes its extreme sensitivity and relative ease of developing the necessary markers, as the genome sequence is readily available. Furthermore, the extremely high sensitivity of Q-PCR permits detection of gene expression from a relatively small number of cells within a much larger population. In addition, the ability to detect very low levels of gene expression provides indications for “differentiation bias” within the population. The bias towards a particular differentiation pathway, prior to the overt differentiation of those cellular phenotypes, is unrecognizable using immunocytochemical techniques. […] Additionally, Q-PCR provides a mechanism by which to evaluate the success of a differentiation protocol in a quantitative format at semi-high throughput scales of analysis.
To generate PCR template, total RNA was isolated using RNeasy (Qiagen) and quantitated using RiboGreen (Molecular Probes). Reverse transcription from 350-500 ng of total RNA was carried out using the iScript reverse transcriptase kit (BioRad), which contains a mix of oligo-dT and random primers. […] Fluorescence data was collected during the last 15 seconds of each extension phase. A three point, 10-fold dilution series was used to generate the standard curve for each run and cycle thresholds (Ct's) were converted to quantitative values based on this standard curve. The quantitated values for each sample were normalized to housekeeping gene performance and then average and standard deviations were calculated for triplicate samples. […]

definitive endoderm = test: Dorsal / ventral / PDX1-negative foregut endoderm differentiation from definitive endoderm (marker gene expression); conditions: first four days of differentiation (FIGS. 51A, 51B)
Description: Definitive endoderm was produced from undifferentiated hESCs using a three or five day protocol in which activin A was provided to the culture medium at a concentration of 100 ng/ml each day. For both dorsal and ventral differentiation, the medium composition for the first five days was as follows: Day 1—RPMI+0% fetal bovine serum (FBS), Day 2—RPMI+0.2% PBS, Day 3—RPMI+2.0% FBS, Day 4—RPMI+2.0% FBS and Day 5—RPMI+2.0% FBS. For the ventral differentiation, definitive endoderm was produced for 3 days in activin A at 100 ng/ml and then exposed to BMP4 at 3 ng/ml and FGF10 at 50 ng/ml. […] For the dorsal differentiation procedure, definitive endoderm was produced for 5 days in activin A at 100 ng/ml and then exposed to retinoic acid (RA) at 2 μM and activin A at 25 ng/ml in CMRL medium containing B27 supplement (1:200).
Four separate conditions were used to treat hESCs that result in varying proportions of differentiation to definitive endoderm. All four conditions utilized RPMI supplemented with 0% FBS on the first day, 0.2% FBS on second day, and 2% FBS on days 3 and 4. The four conditions were as follows: (a) BMP4 at 100 ng/mL with SU5402 at 5 μM; (b) no exogenous growth factors; (c) activin A at 15 ng/mL; and (d) activin A at 100 ng/ml. […] All cultures were then incubated for 2 days with BMP4 at 3 ng/mL, FGF10 at 50 ng/ml and KAAD-cyclopamine at 0.5 μM in a base medium of 2% FBS in RPMI followed by 6 days with BMP4 at 3 ng/mL, FGF10 at 50 ng/ml and KAAD-cyclopamine at 0.5 μM in a base medium composed of CMRL with 1:200 dilution of B27 extract.
Definitive endoderm was produced by exposing undifferentiated hESCs to activin at 100 ng/mL in RPMI base medium supplemented with 0%, 0.2%, and 2% FBS on days 1 through 3, respectively. After 3 days of activin A treatment, the cultures were switched to a base medium composed of RPMI containing 2% FBS and maintained under one of the following conditions: (a) BMP4 at 3 ng/ml with FGF10 at 50 ng/ml and KAAD-cyclopamine at 0.5 μM; (b) FGF10 at 50 ng/ml and KAAD-cyclopamine at 0.5 μM; or (c-e) no exogenous factors. After two days, the base medium was changed to CMRL plus B27 supplement (1:200) and cells were maintained according to conditions (a-c) above. Alternatively, cells were maintained with no exogenous factors in RPMI with B27 supplement (1:200) (condition (d)) or RPMI with 2% FBS (condition (e)). The same factor treatment conditions were maintained for 8 more days of differentiation.
Human embryonic stem cells were differentiated for 7 days via a 2-step protocol to achieve PDX1 cells. The first step comprised 5 days differentiation in activin A (100 ng/ml) to robustly produce DE (D'Amour, K., et al., Nature Biotechnology 23, 1534-1541, (2005)). […]

hESCs [2] = test: CXCR4+ cell number by flow cytometry; conditions: 0, 10, or 100 ng/ml, 7 days (FIGS. 30A-C)
Description: as §1, with “pelleted. Pellets were resuspended in a small volume of 50% human serum/50% normal donkey serum and incubated for 2 minutes on ice to block non-specific antibody binding sites. To this, 1 μl of mouse anti-CXCR4 antibody (Abcam, cat # ab10403-100) was added per 50 μl (containing approximately 10^5 cells) and labeling proceeded for 45 minutes on ice. Cells were washed by adding 5 ml of PBS containing 2% human serum (buffer) and pelleted. A second wash with 5 ml of buffer was completed then cells were resuspended in 50 μl buffer per 10^5 cells.” for “pelleted.”

B1: activin A (protein, UniProt P08476 311-426, looked up)
Inhibin beta A chain: GLECDGKVNICCKKQFFVSFKDIGWNDWIIAPSGYHANYCEGECPSHIAGTSGSSLSFHSTVINHYRMRGHSPFANLKSCCVPTKLRPMSMLYYDDGQNIIKKDIQNMIVEECGCS
modifications: Inhibin beta A chain
hESCs [1]; 100 ng/ml (FIG. 14B)
  mesoderm differentiation (brachyury expression): notable suppression
hESCs [1]; activin A dose series (FIG. 14A)
  effect on neural differentiation (ZIC1 expression): not a dose-dependent effect
hESCs [1]; activin A dose series (FIGS. 12A-C)
  expression of definitive endoderm markers MIXL1, GATA4 and HNF3b: dose-dependent increases
hESCs [1]; activin A dose series (FIGS. 13B-C)
  expression of primitive endoderm (SOX7) and parietal endoderm (SPARC) markers: remain either unchanged or exhibit suppression at some time points
CXCR4 gene expression; 0, 10, or 100 ng/ml, 7 days (FIG. 32)
  relative levels of CXCR4 gene expression: dramatically increased with increasing dose
CXCR4 gene expression; 100 ng/ml (A100) vs no exogenous activin A (NF), 6 days (FIG. 26)
  CXCR4 expression: high
AFP gene expression; FIG. 8A
  suppression of AFP gene expression in comparison to no treatment: 6.8 fold
AFP gene expression; FIG. 8A legend
  difference in AFP gene expression levels, activin A vs random differentiation in 10% FBS: approximately 7 fold
AFP gene expression; activin A dose series (FIG. 13A)
  expression of the visceral endoderm marker AFP: dose-dependent decrease
Definitive endoderm
  definitive endoderm production (CER and SOX17 gene expression): robust definitive endoderm differentiation
hESCs [2]
  number of CXCR4+ cells as determined by flow cytometry: increase dramatically
